Test [1] deals with T1, SARS-CoV-2 S receptor-binding domain (RBD), biotinylated (SARS-CoV-2, UniProt P0DTC2, biotin on the Avi tag (enzymatic, BirA)).
T1 construct: also called wild-type RBD; WT
Nature of the test: BLI. The note with it: both partners purified.

Test [2] deals with T1, SARS-CoV-2 S receptor-binding domain …. Nature of the test: cell-based or functional assay.

B1: scFD20 (single-chain variable fragment of FD20) (scFv, V domains shown)
VH: QVQLQQSGAEVKKPGSSVKVSCKASGGTFSSYAFSWVRQAPGQGLEWMGRIIPILGIANYAQKFQGRVTITADISTSTAYMALSSLRSEDTAVYYCAKVEVNIGMDDYYYYYGMDVWGQGTTVTVSS
VL: not shown
notes: also called scFv of FD20; scFv FD20; source: E. coli MC1061, periplasmic release, purified (Ni-NTA)
The term Kd denotes a measure of binding affinity in units of concentration. Take B1: the Kd in test [1] was 5.6 nM. Further, in test [2], the “neutralisation of SARS-CoV-2 pseudovirus particles (pp), IC50” value came out at 117 nM.

B2: FD20 (IgG format) (antibody, V domains shown)
VH: B1 VH
VL: not shown
For the molecule B2, the “microneutralisation of authentic SARS-CoV-2 hCoV-19/China/CAS-B001/2020, IC50” value in test [2] was found to be 5.2 nM.

These data come from article PMC8646660 (EMBO Molecular Medicine, 2021).
